Measured values published in patent US20200095327A1 (DRAGONFLY THERAPEUTICS, published 2020).

Tests used:
[1] = target: T1, Tyrp-1 on B16F10 melanoma cells (UniProt P07147 25-537, limits assumed); assay: flow cytometry on B16F10 tumor cells, 60 ug/mL with four-fold dilutions, goat anti-mouse PE secondary (FIG. 50A)
T1 construct: whole, on cells; also called Tyrp-1-positive B16F10 melanoma cells; B16F10 tumor cells
Protocol: 60 μg/mL of indicated antibodies with four-fold dilutions were added to 2×10⁵ B16F10 tumor cells (FIG. 50A) or EL4-mNKG2D cells (FIG. 50B). Binding was assessed using a goat anti-mouse PE secondary antibody followed by flow cytometric analysis.

[2] = target: T2, CD33 expressed on MV4-11 human AML cells (human, UniProt P20138 18-364); assay: flow cytometry on MV4-11 cells, anti-human IgG secondary
T2 construct: whole, on cells; also called cell-expressed CD33
T2 sequence (P20138 18-364): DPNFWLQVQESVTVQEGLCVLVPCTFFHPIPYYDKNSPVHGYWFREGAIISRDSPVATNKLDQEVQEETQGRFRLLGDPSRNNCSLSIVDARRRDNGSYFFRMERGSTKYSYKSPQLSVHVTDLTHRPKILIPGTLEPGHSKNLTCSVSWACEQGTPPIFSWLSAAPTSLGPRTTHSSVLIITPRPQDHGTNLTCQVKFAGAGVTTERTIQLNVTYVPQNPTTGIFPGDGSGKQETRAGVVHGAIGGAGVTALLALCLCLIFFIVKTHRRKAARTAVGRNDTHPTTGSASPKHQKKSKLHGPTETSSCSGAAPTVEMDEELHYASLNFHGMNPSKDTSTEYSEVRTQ
Source text: Human AML cell line MV4-11, expressing CD33 was used to assay the binding of TriNKETs to the tumor associated antigen.

| binding result [1] | binding result [2] | Binder |
| --- | --- | --- |
| binds |  | mcFAE-C26.99 TriNKET (bispecific antibody, mouse IgG2c, also called murine cFAE-C26.99 TriNKET; TA99 TriNKET) light 1: DIQMTQSPSTLSASVGDRVTITCRASQSISSWLAWYQQKPGKAPKLLIYKASSLESGVPSRFSGSGSGTEFTLTISSLQPDDFATYYCQQYGSFPITFGGGTKVEIKRADAAPTVSIFPPSSEQLTSGGASVVCFLNNFYPKDINVKWKIDGSERQNGVLNSWTDQDSKDSTYSMSSTLTLTKDEYERHNSYTCEATHKTSTSPIVKSFNRNEC heavy 1: QVQLQQWGAGLLKPSETLSLTCAVYGGSFSGYYWSWIRQPPGKGLEWIGEIDHSGSTNYNPSLKSRVTISVDTSKNQFSLKLSSVTAADTAVYYCARARGPWSFDPWGQGTLVTVSSAKTTAPSVYPLAPVCGGTTGSSVTLGCLVKGYFPEPVTLTWNSGSLSSGVHTFPALLQSGLYTLSSSVTVTSNTWPSQTITCNVAHPASSTKVDKKIEPRVPITQNPCPPLKECPPCAAPDLLGGPSVFIFPPKIKDVLMISLSPMVTCVVVDVSEDDPDVQISWFVNNVEVHTAQTQTHREDYNSTLRVVSALPIQHQDWMSGKEFKCKVNNRALPSPIEKTISKPRGPVRAPQVYVLPPPAEEMTKKEFSLTCMIKGFLPAEIAVDWTSNGRTEQNYKNTATVLDSDGSYFMYSRLRVQKSTWERGSLFACSVVHEGLHNHLTTKTISRSLGK light 2: DIQMSQSPASLSASVGETVTITCRASGNIYNYLAWYQQKQGKSPHLLVYDAKTLADGVPSRFSGSGSGTQYSLKISSLQTEDSGNYYCQHFWSLPFTFGSGTKLEIKRADAAPTVSIFPPSSEQLTSGGASVVCFLNNFYPKDINVKWKIDGSERQNGVLNSWTDQDSKDSTYSMSSTLTLTKDEYERHNSYTCEATHKTSTSPIVKSFNRNEC heavy 2: EVQLQQSGAELVRPGALVKLSCKTSGFNIKDYFLHWVRQRPDQGLEWIGWINPDNGNTVYDPKFQGTASLTADTSSNTVYLQLSGLTSEDTAVYFCTRRDYTYEKAALDYWGQGASVIVSSAKTTAPSVYPLAPVCGGTTGSSVTLGCLVKGYFPEPVTLTWNSGSLSSGVHTFPALLQSGLYTLSSSVTVTSNTWPSQTITCNVAHPASSTKVDKKIEPRVPITQNPCPPLKECPPCAAPDLLGGPSVFIFPPKIKDVLMISLSPMVTCVVVDVSEDDPDVQISWFVNNVEVHTAQTQTHREDYNSTLRVVSALPIQHQDWMSGKEFKCKVNNRALPSPIEKTISKPRGPVRAPQVYVLPPPAEEMTKKEFSLTCMITGFLPAEIAVDWTSNGRTEQNYKNTATVLDSDGSYLMYSKLTVQKSTWERGSLFACSVVHEGLHNHLTTKTISRSLGK |
|  | binds | CD33-TriNKET-C26 (ADI-28226 and a CD33-binding domain) (bispecific antibody, V domains shown, also called C26-TriNKET-CD33; CD33-targeting TriNKET) VH 1: QVQLQQWGAGLLKPSETLSLTCAVYGGSFSGYYWSWIRQPPGKGLEWIGEIDHSGSTNYNPSLKSRVTISVDTSKNQFSLKLSSVTAADTAVYYCARARGPWSFDPWGQGTLVTVSS VL 1: DIQMTQSPSTLSASVGDRVTITCRASQSISSWLAWYQQKPGKAPKLLIYKASSLESGVPSRFSGSGSGTEFTLTISSLQPDDFATYYCQQYGSFPITFGGGTKVEIK VH 2: QVQLVQSGAEVKKPGASVKVSCKASGYTFTDYVVHWVRQAPGQGLEWMGYINPYNDGTKYNEKFKGRVTMTRDTSISTAYMELSRLRSDDTAVYYCARDYRYEVYGMDYWGQGTLVTVSS VL 2: DIVLTQSPASLAVSPGQRATITCTASSSVNYIHWYQQKPGQPPKLLIYDTSKVASGVPARFSGSGSGTDFTLTINPVEANDTANYYCQQWRSYPLTFGQGTKLEIK |
|  | binds | CD33-TriNKET-F04 (ADI-29404 and a CD33-binding domain) (bispecific antibody, V domains shown, also called F04-TriNKET-CD33; CD33-targeting TriNKET) VH 1: QVQLQQWGAGLLKPSETLSLTCAVYGGSFSGYYWSWIRQPPGKGLEWIGEIDHSGSTNYNPSLKSRVTISVDTSKNQFSLKLSSVTAADTAVYYCARARGPWSFDPWGQGTLVTVSS VL 1: DIQMTQSPSTLSASVGDRVTITCRASQSISSWLAWYQQKPGKAPKLLIYKASSLESGVPSRFSGSGSGTEFTLTISSLQPDDFATYYCEQYDSYPTFGGGTKVEIK VH 2: QVQLVQSGAEVKKPGASVKVSCKASGYTFTDYVVHWVRQAPGQGLEWMGYINPYNDGTKYNEKFKGRVTMTRDTSISTAYMELSRLRSDDTAVYYCARDYRYEVYGMDYWGQGTLVTVSS VL 2: DIVLTQSPASLAVSPGQRATITCTASSSVNYIHWYQQKPGQPPKLLIYDTSKVASGVPARFSGSGSGTDFTLTINPVEANDTANYYCQQWRSYPLTFGQGTKLEIK |
